Results published in patent US20030152514A1 (ABGENIX, published 2003).
Several values for one entry are separate records, joined by “and”; a condition that tells them apart may be missing. Equal values may be shown once.

Assays:
[1] = molecular target: T1, MUC18-V5-His antigen (extracellular domain aa 1-559 of human MUC18 fused to V5-HIS) (human, UniProt P43121 24-559); assay: SPR (Biacore 3000), mAb captured on protein A, MUC18-V5-His in flow, 1:1 model; May 2001, chip I; exponent printed without its minus sign
[2] = molecular target: T1, MUC18-V5-His antigen (extracellular …); assay: SPR (Biacore 3000), mAb captured on protein A, MUC18-V5-His in flow, 1:1 model; November 2001, chip III
[3] = molecular target: T2, mouse MUC18 protein of normal (nude) mouse endothelial cells (mouse, UniProt Q8R2Y2 24-648); assay: immunoblot of nude mouse endothelial cell lysate (40 ug protein, 10% SDS-PAGE), anti-human IgG secondary, ECL
T2 construct: whole, on cells; Tested as cell lysate on SDS-PAGE immunoblot, not on intact cells; also called NME; NME2 cells
T2 sequence (looked up): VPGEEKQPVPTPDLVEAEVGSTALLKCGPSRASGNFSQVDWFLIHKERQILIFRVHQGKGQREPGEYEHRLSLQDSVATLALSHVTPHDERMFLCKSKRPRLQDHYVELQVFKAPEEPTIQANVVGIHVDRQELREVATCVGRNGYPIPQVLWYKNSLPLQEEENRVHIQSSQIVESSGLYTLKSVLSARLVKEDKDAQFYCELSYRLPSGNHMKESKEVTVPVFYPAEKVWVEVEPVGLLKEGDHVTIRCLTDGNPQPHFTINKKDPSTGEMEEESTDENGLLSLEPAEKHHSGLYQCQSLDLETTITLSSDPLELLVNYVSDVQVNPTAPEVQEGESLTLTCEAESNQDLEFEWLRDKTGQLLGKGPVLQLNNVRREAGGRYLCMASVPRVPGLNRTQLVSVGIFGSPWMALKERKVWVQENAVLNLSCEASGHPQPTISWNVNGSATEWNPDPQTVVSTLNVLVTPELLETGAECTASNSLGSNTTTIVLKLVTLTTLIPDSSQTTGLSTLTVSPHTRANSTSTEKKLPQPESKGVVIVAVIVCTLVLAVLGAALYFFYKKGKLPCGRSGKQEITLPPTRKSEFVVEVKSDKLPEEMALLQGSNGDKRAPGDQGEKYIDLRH
Procedure: (§1) After overnight incubation, the plates were washed two times in PBS, and scraped in 400 μl Triton lysis buffer containing a cocktail of protease inhibitors plus DTT. Following centrifugation, the protein concentration was determined using a kit from BioRad. 40 μg of protein was loaded onto a 10% SDS-PAGE and electrophoretically transferred to a 0.45 -micron nitrocellulose membrane (Millipore). The membrane was incubated in buffer containing anti-MUC18 antibody overnight, reacted with a conjugated secondary antibody (Anti-human IgG) for one hour and the proteins were subsequently detected by the ECL (Amersham Corp) method according to the manufactures protocol.

[4] = molecular target: T3, human MUC18 expressed by human melanoma cells (A375-SM, TXM-13, WM-2664) (human, UniProt P43121 24-646); assay: immunoblot of melanoma cell lysates (40 ug protein, 10% SDS-PAGE, denatured MUC18), anti-human IgG secondary, ECL
T3 construct: whole, on cells; also called MCAM; Mel-CAM
Procedure: as §1

[5] = molecular target: T1, MUC18-V5-His antigen (extracellular …); assay: SPR (Biacore 3000), mAb captured on protein A, MUC18-V5-His in flow, 1:1 model; November 2001, chip III; exponent printed without its minus sign
[6] = molecular target: T1, MUC18-V5-His antigen (extracellular …); assay: SPR (Biacore 3000), mAb captured on protein A, MUC18-V5-His in flow, 1:1 model; October 2001, chip II
[7] = molecular target: T1, MUC18-V5-His antigen (extracellular …); assay: SPR (Biacore 3000), average of the seven measurements
[8] = molecular target: T1, MUC18-V5-His antigen (extracellular …); assay: SPR (Biacore 3000), mAb captured on protein A, MUC18-V5-His in flow, 1:1 model; October 2001, chip II; exponent printed without its minus sign
[9] = molecular target: T1, MUC18-V5-His antigen (extracellular …); assay: SPR (Biacore 3000), mAb captured on protein A, MUC18-V5-His in flow, 1:1 model; May 2001, chip I

- koff [1]: 0.000302 s⁻¹
- Kd [2]: 460 pM and 620 pM and 650 pM and 590 pM
- kon [2]: 749000 M⁻¹ s⁻¹ and 625000 M⁻¹ s⁻¹ and 615000 M⁻¹ s⁻¹ and 661000 M⁻¹ s⁻¹
- binding result [3]: no binding
- binding result [4]: binds
- koff [5]: 0.000347 s⁻¹ and 0.000385 s⁻¹ and 0.000402 s⁻¹ and 0.000389 s⁻¹
- Kd [6]: 570 pM and 690 pM
- kon [6]: 709000 M⁻¹ s⁻¹ and 575000 M⁻¹ s⁻¹
- Kd [7]: 610 pM
- koff [7]: 0.000375 s⁻¹
- kon [7]: 627000 M⁻¹ s⁻¹
- koff [8]: 0.000402 s⁻¹ and 0.000396 s⁻¹
- Kd [9]: 670 pM
- kon [9]: 453000 M⁻¹ s⁻¹
B1: anti-MUC18 antibody c3.19.1 (antibody, human IgG2, V domains shown)
VH: QVQLQESGPGLVKPSETLSLTCTVSGGSISSYYWSWIRQPPGKGLEWIGYIYYTWTSNYNPSLKSRVTISVDTSKNQFSLRLSSVTAADTAVYYCARDQGQWLLPDAFDIWGQGTMVTVSS
VL: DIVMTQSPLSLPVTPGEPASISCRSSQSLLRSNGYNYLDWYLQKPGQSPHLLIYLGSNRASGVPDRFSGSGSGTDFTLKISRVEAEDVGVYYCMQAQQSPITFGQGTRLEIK
notes: also called ABX-MA1; MAb 3.19.1
